Measurements: publication PMC4041433
Read-outs that look alike come from different tables or passages of the source. One block for each molecule: values may come before it.

Columns and labels:
[1] = target: Pyrococcus furiosus ThermoDBP-related protein 1 (pfuThermoDBP-RP1) (Pyrococcus furiosus); assay: crystal structure
[2] = target: Pyrococcus furiosus ThermoDBP-related protein 1 (pfuThermoDBP-RP1) (Pyrococcus furiosus); assay: SEC
[3] = target: Aeropyrum pernix ThermoDBP-related protein 2 (apeThermoDBP-RP2) (Aeropyrum pernix); assay: crystal structure
[4] = target: Aeropyrum pernix ThermoDBP-related protein 2 (apeThermoDBP-RP2) (Aeropyrum pernix); assay: crystal structure; remark: listed apart in the source
[5] = target: Aeropyrum pernix ThermoDBP-related protein 2 (apeThermoDBP-RP2) (Aeropyrum pernix); assay: SEC
[6] = target: T1, apeThermoDBP-RP2 (Aeropyrum pernix, UniProt Q9YAS7 1-234); assay: EMSA
T1 sequence: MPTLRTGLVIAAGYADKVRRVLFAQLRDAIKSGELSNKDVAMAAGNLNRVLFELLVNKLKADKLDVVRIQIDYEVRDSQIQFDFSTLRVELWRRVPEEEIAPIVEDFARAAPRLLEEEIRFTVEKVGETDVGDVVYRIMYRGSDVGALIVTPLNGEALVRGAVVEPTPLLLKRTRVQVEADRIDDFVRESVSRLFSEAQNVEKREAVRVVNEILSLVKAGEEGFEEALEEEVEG

[7] = target: T1, apeThermoDBP-RP2; assay: EMSA; remark: listed apart in the source
[8] = target: T1, apeThermoDBP-RP2; assay: EMSA; remark: listed apart in the source
[9] = target: T1, apeThermoDBP-RP2; assay: EMSA; remark: listed apart in the source

- stoichiometry N [1]: 4
- stoichiometry N [2]: 4
Molecule: Pyrococcus furiosus ThermoDBP-related protein 1 (pfuThermoDBP-RP1) (natural protein)

- stoichiometry N [3]: 4
- stoichiometry N [4]: 4
- stoichiometry N [5]: 4
Molecule: Aeropyrum pernix ThermoDBP-related protein 2 (apeThermoDBP-RP2) (natural protein)

B1: dT20 (ssDNA)
DNA: TTTTTTTTTTTTTTTTTTTT
- binding result [6]: binds

B2: dT25 (ssDNA)
DNA: TTTTTTTTTTTTTTTTTTTTTTTTT
- binding result [6]: binds

B3: dT15 (ssDNA)
DNA: TTTTTTTTTTTTTTT
- binding result [6]: binds

B4: dT35 (ssDNA)
DNA: TTTTTTTTTTTTTTTTTTTTTTTTTTTTTTTTTTT
- binding result [7]: binds

B5: 45-mer ssDNA (ssDNA)
DNA: CTTGCTAGGACGGATCCCTCGAGGTTTTTTTTTTTTTTTTTTTT
- binding result [8]: binds

B6: dT30 (ssDNA)
DNA: TTTTTTTTTTTTTTTTTTTTTTTTTTTTTT
- binding result [9]: binds
